B1: Tyrosine-protein phosphatase non-receptor type 2 (Homo sapiens), P17706-2 (parent)
chain: MPTTIEREFEELDTQRRWQPLYLEIRNESHDYPHRVAKFPENRNRNRYRDVSPYDHSRVKLQNAENDYINASLVDIEEAQRSYILTQGPLPNTCCHFWLMVWQQKTKAVVMLNRIVEKESVKCAQYWPTDDQEMLFKETGFSVKLLSEDVKSYYTVHLLQLENINSGETRTISHFHYTTWPDFGVPESPASFLNFLFKVRESGSLNPDHGPAVIHCSAGIGRSGTFSLVDTCLVLMEKGDDINIKQVLLNMRKYRMGLIQTPDQLRFSYMAIIEGAKCIKGDSSIQKRWKELSKEDLSPAFDHSPNKIMTEKYNGNRIGLEEEKLTGDRCTGLSSKMQDTMEENSESALRKRIREDRKATTAQKVQQMKQRLNENERKRKRPRLTDT
B2: Tyrosine-protein phosphatase non-receptor type 2 (Homo sapiens), P17706-1 (parent)
chain: MPTTIEREFEELDTQRRWQPLYLEIRNESHDYPHRVAKFPENRNRNRYRDVSPYDHSRVKLQNAENDYINASLVDIEEAQRSYILTQGPLPNTCCHFWLMVWQQKTKAVVMLNRIVEKESVKCAQYWPTDDQEMLFKETGFSVKLLSEDVKSYYTVHLLQLENINSGETRTISHFHYTTWPDFGVPESPASFLNFLFKVRESGSLNPDHGPAVIHCSAGIGRSGTFSLVDTCLVLMEKGDDINIKQVLLNMRKYRMGLIQTPDQLRFSYMAIIEGAKCIKGDSSIQKRWKELSKEDLSPAFDHSPNKIMTEKYNGNRIGLEEEKLTGDRCTGLSSKMQDTMEENSESALRKRIREDRKATTAQKVQQMKQRLNENERKRKRWLYWQPILTKMGFMSVILVGAFVGWTLFFQQNAL

Variants of: B1
Conditions: with insr_human INSR

| Variant | effect of a mutation on the interaction |
| --- | --- |
| D182A | causing an interaction |

Variants of: B2
Conditions: with insr_human INSR

| Variant | effect of a mutation on the interaction |
| --- | --- |
| D182A | causing an interaction |
